Biological target: T1, NRF1 DD-DBD (Homo sapiens, UniProt Q16656 49-288)
T1 sequence: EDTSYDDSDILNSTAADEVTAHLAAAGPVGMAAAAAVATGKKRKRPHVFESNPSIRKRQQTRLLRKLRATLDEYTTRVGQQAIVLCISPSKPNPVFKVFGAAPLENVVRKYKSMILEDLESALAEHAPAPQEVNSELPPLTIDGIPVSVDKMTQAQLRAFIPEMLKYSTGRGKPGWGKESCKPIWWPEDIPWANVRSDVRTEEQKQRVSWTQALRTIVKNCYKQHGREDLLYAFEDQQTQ
Experiment: ITC; two-site fit; DNA 500 uM into 50 uM protein; Kd only in Fig 4B; ITC: 50 mM Tris pH 8.0, 100 mM NaCl, 1 mM EDTA, 1 mM DTT, 25 C; EMSA: Thermo 20148 kit, SH-SY5Y nuclear extract
Settings: protein: recombinant; cleaved with HRV 3C when needed; chain copies: 2

B1: RS(WT) / RS(G) (dsDNA)
DNA 1: GGCGCAGCCGCAGC
DNA 2: GCTGCGGCTGCGCC
- binding result: binds
